The source of these data is patent US6682731 (LUDWIG INSTITUTE FOR CANCER RESEARCH, dated 2004).

This test addresses T1, HLA-A2 molecule (MHC class I heterodimer, no peptide of the filing added) (human).
T1 construct: as control target of the CTL assays it stood on T2 cells without added peptide or on COS-7 cells transfected with HLA-A2 alone; The subtype is printed only as HLA-A2.01 for the transfected gene; also called HLA-A2.01; MHC class-I molecule
The test is described as follows: HLA-A2 assembly/stabilisation in 0.174 cell lysate with 10 and 20 uM peptide, immunoprecipitation with mAb BB7.2, gel.

Procedure: It is an HLA-A2 presenting cell line deficient in the pathway which supplies peptides to the endoplasmic reticulum, the site of assembly of MHC class-I heterodimers. The cell line can assemble MHC class-I molecules, but these are unstable and, on cell lysis, dissociate into free heavy and light chains during overnight incubation. The heterodimers can, however, be stabilized in vitro via addition of appropriate peptide ligands. […] Thus, the stabilized molecules can be immunoprecipitated with antibodies specific for the MHC class-I molecule.
In the first part of these experiments, peptides were tested to determine if they facilitated assembly of HLA-A2 in the cell line. […] The cells were then washed, once, with phosphate buffered saline, and then resuspended in 10 ml of lysis buffer (0.5% NP-40; 0.5% Mega 9, 150 mM NaCl, 5 mM EDTA, 50 mM Tris [pH 7.5], 2 mM phenylmethylsulfonylfluoride, 5 mM iodoacetamide). The lysates were then incubated with peptide (10 μM and 20 μM), for 15–18 hours. Nuclei were then pelleted in a microfuge, and the lysates were precleared, overnight, at 4° C. with 0.2 ml of washed, 10% (w/v) Staphylococcus A organisms. […] The mixtures were incubated for 90 minutes on ice, followed by addition of bovine serum albumin to 1% (w/v), and 100 ul of 5% (w/v) protein-A Sepharose beads.

B1: peptide SEQ ID NO: 7, Thr Leu Val Glu Val Thr Leu Gly Glu Val (peptide)
peptide: TLVEVTLGEV
For the molecule B1, the binding result is given as “binds”.
